For one substance, Km, kcat and kcat/Km results are on record in PMC7725843, “Structural and biochemical analyses of an aminoglycoside 2′-N-acetyltransferase from Mycolicibacterium smegmatis” (Scientific Reports, 2020).

Common to all, as to assay: purified protein
What all share (type): biochemical, Mycolicibacterium smegmatis

For data set [1], the system named is NC[C@H]1O[C@H](O[C@H]2[C@H](O)[C@@H](O[C@H]3O[C@H](CO)[C@@H](O)[C@H](N)[C@H]3O)[C@H](N)C[C@@H]2N)[C@H](O)[C@@H](O)[C@@H]1O. The following applies: 300 μM acetyl-CoA, 50 mM MES pH 6.5, 200 μM DTNB, 25 °C.
In data set [2] the test system is CC(=O)SCCNC(=O)CCNC(=O)[C@H](O)C(C)(C)COP(=O)(O)OP(=O)(O)OC[C@H]1O[C@@H](n2cnc3c(N)ncnc32)[C@H](O)[C@@H]1OP(=O)(O)O. The following applies: aminoglycoside co-substrate not told, 50 mM MES pH 6.5, 200 μM DTNB, 25 °C.
The test system of data set [3] is NC[C@H]1O[C@H](O[C@H]2[C@H](O)[C@@H](O[C@H]3O[C@H](CO)[C@@H](O)[C@H](N)[C@H]3O)[C@H](N)C[C@@H]2N)[C@H](N)C[C@@H]1O. The following applies: 300 μM acetyl-CoA, 50 mM MES pH 6.5, 200 μM DTNB, 25 °C.
Data set [4] has as its system NC[C@@H]1O[C@H](O[C@H]2[C@@H](O)[C@H](O[C@@H]3[C@@H](O)[C@H](N)C[C@H](N)[C@H]3O[C@H]3O[C@H](CO)[C@@H](O)[C@H](O)[C@H]3N)O[C@@H]2CO)[C@H](N)[C@@H](O)[C@@H]1O. The following applies: 300 μM acetyl-CoA, 50 mM MES pH 6.5, 200 μM DTNB, 25 °C.

What is called kcat is the number of substrate molecules converted per active site and unit of time at saturation. For orientation: kcat/Km means the turnover number divided by the Michaelis constant.

With “AAC(2′)-Id (Mycolicibacterium smegmatis MC2 155)”, the Km entry was “(1.67 ± 0.84) × 10^2 μM” in data set [1], “(1.86 ± 0.10) × 10^2 μM” in data set [3] and “(1.04 ± 0.14) × 10^2 μM” in data set [4]. Besides, the kcat is 0.13 ± 0.03 s⁻¹ in data set [1], 0.34 ± 0.03 s⁻¹ in data set [2], 3.34 ± 0.1 s⁻¹ in data set [3] and 1.08 ± 0.06 s⁻¹ in data set [4]. In addition, the kcat/Km was 817 ± 620 M⁻¹ s⁻¹ in data set [1], 5670 ± 1620 M⁻¹ s⁻¹ in data set [2], 18000 ± 1600 M⁻¹ s⁻¹ in data set [3] and 10400 ± 2100 M⁻¹ s⁻¹ in data set [4].
